Test results: patent EP0554446B1

Legend:
[1] = target: HIV-1 MN gp120 (HIV-1 MN) (UniProt P05877); experiment: RIA of hybridoma supernatant on live HIV-1MN-infected against uninfected H9 cells, 125I rabbit anti-mouse IgG
[2] = target: HIV-1 IIIB gp120 (HIV-1 IIIB) (UniProt P03375); experiment: cell-based or functional assay
[3] = target: HIV-1 MN gp120 (HIV-1 MN) (UniProt P05877); experiment: cell-based or functional assay
[4] = target: HIV-1 RF gp120 (HIV-1 RF) (UniProt P04579); experiment: cell-based or functional assay
Chain of UniProt P04579 (P04579 32-865): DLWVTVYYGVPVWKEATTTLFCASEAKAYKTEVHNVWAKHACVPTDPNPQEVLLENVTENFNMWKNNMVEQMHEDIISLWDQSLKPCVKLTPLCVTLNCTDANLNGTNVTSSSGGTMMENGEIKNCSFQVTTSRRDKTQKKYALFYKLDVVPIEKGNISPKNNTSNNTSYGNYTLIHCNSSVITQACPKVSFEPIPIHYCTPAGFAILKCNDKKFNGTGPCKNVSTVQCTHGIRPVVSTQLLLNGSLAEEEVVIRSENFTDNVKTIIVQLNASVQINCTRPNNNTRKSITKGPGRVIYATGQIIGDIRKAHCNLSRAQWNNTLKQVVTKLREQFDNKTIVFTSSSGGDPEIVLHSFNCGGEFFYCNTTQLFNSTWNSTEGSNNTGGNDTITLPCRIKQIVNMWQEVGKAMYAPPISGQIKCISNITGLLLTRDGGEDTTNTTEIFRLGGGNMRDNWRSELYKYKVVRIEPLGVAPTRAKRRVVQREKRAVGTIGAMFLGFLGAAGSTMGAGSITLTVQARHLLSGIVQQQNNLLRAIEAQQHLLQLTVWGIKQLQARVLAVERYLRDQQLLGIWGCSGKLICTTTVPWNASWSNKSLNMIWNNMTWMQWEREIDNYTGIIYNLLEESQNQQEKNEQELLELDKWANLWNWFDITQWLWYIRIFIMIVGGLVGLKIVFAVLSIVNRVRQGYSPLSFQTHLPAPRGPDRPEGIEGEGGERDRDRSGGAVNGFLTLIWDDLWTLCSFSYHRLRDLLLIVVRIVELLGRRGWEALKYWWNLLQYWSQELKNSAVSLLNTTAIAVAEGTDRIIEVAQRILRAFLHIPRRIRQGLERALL

[5] = target: HIV-1 MN gp120 (HIV-1 MN) (UniProt P05877); experiment: ELISA of hybridoma supernatant on membranes of MN-infected against uninfected H9 cells

Chain of UniProt P05877 (P05877 32-856): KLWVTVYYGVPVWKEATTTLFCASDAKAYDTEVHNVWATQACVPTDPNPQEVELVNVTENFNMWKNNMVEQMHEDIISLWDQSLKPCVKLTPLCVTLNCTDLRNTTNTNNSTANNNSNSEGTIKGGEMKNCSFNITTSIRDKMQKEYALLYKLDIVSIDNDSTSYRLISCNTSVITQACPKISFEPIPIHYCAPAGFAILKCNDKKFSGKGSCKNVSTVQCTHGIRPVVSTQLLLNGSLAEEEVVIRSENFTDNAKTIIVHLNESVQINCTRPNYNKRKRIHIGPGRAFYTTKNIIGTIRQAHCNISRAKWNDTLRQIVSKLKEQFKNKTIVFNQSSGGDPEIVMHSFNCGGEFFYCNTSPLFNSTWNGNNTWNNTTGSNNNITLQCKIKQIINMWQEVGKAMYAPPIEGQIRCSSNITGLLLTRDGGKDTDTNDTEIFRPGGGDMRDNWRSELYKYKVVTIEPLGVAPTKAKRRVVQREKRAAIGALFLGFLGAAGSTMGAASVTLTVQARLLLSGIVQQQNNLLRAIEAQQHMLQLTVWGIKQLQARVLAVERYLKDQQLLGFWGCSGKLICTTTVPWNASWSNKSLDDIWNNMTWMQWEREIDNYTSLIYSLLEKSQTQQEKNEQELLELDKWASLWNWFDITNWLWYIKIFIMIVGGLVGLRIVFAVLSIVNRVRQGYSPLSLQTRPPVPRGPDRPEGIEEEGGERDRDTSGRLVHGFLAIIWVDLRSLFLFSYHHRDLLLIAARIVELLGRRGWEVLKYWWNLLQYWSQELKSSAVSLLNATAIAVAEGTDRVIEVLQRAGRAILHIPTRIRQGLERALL

## monoclonal antibody NM-01
[1]
  RIA Ratio cpm inf/cpm uninf: 9.81
[2]
  ID50, live IIIB virus, MT-2 assay: 0.1 µg/mL
  ID50, live IIIB virus, reverse transcriptase assay: 0.1 µg/mL
  ID50, syncytium formation by IIIB-infected H9 cells with C8166 cells: 3 µg/mL
  percent inhibition of syncytium formation by IIIB-infected cells at 25 µg antibody: 85%
[3]
  ID50, live MN virus, MT-2 assay: 2 µg/mL
  ID50, live MN virus, reverse transcriptase assay: < 1 µg/mL
  ID50, syncytium formation by MN-infected H9 cells with C8166 cells: 2 µg/mL
  percent inhibition of syncytium formation by MN-infected cells at 25 µg antibody: 85%
[4]
  ID50, live RF virus, reverse transcriptase assay: 0.05 µg/mL
  ID50, syncytium formation by RF-infected cells: 4 µg/mL
  percent inhibition of syncytium formation by RF-infected cells at 25 µg antibody: 59%
[5]
  ELISA ratio, infected cell membranes to uninfected cell membranes (Run 1): 5.76
